These results are taken from PMC4003243 (The Journal of Cell Biology, 2014).

Where no end group is shown, it is not given here.

This experiment concerns the target His-tagged talin head (1–406 aa) (human, UniProt Q9Y490 1-406). Briefly: BLI. In general terms: Biolayer interferometry detects binding as a change in optical thickness at a sensor tip.

Chain of His-tagged talin head (1–406 aa) (Q9Y490 1-406): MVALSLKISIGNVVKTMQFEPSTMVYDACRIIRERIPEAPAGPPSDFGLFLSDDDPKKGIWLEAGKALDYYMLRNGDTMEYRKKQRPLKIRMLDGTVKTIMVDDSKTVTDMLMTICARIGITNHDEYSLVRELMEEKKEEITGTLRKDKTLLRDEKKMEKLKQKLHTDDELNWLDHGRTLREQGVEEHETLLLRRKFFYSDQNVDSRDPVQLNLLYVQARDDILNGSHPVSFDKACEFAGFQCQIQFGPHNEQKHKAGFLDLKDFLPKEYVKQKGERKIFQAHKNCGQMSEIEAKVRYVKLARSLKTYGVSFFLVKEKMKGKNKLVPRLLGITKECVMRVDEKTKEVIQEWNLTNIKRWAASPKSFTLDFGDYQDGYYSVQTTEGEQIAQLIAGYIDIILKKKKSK

B1: GST–β3-tail (716–762 aa), wild type (domain or fragment, mouse, UniProt O54890 741-787, looked up)
chain: KLLITIHDRKEFAKFEEERARAKWDTANNPLYKEATSTFTNITYRGT
modifications: also: GST fusion
With B1, the binding result is listed as “binds”.

B2: GST–β3-tail, β3-VE chimera (domain or fragment, mouse, UniProt O54890 741-787, looked up)
chain: KLLITIHDRKEFAKFEEERARAKWVENPLYKEATSTFTNITYRGT
modifications: also: GST fusion
For B2, the “fold higher affinity over wild-type β3-tail” value was around 20 fold.
